# Experimental data reported in PMC9582199, “Molecular architecture of the glycogen- committed PP1/PTG holoenzyme” (Nature Communications, 2022).
# Read-outs that look alike come from different tables or passages of the source.
# B1: PTG peptide 81-107 (peptide, UniProt Q9UQK1 81-107, looked up)
# peptide: AKKRVVFADSKGLSLTAIHVFSDLPEE
# notes: also called PTG N-terminal peptide; source: synthetic peptide, bought: ProteoGenix SAS
# B2: PTG 70-264 (Protein phosphatase 1 regulatory subunit 3C, residues 70-264) (domain or fragment, human, UniProt Q9UQK1 70-264, looked up)
# chain: SQNDWKCSHNQAKKRVVFADSKGLSLTAIHVFSDLPEEPAWDLQFDLLDLNDISSALKHHEEKNLILDFPQPSTDYLSFRSHFQKNFVCLENCSLQERTVTGTVKVKNVSFEKKVQIRITFDSWKNYTDVDCVYMKNVYGGTDSDTFSFAIDLPPVIPTEQKIEFCISYHANGQVFWDNNDGQNYRIVHVQWKPD
# notes: GST removed on the column with 3C protease; also called PPP1R3C; protein targeting to glycogen; source: E. coli, co-expressed with GroEL/ES (pGro7), purified (glutathione agarose, SEC); for the crystal co-expressed with PP1 7-300; not shown: GST, N-terminal, cleaved
# B3: PTG70-264: recombinant human PTG residues 70–264, encompassing the PP1-binding region and the CBM21 (protein)
# chain: B2 chain
# modifications: left off: GST, N-terminal, cleaved
# B4: CBM21 aa. 132–264: recombinant PTG carbohydrate-binding module 21, residues 132–264 (protein)
# chain: KNLILDFPQPSTDYLSFRSHFQKNFVCLENCSLQERTVTGTVKVKNVSFEKKVQIRITFDSWKNYTDVDCVYMKNVYGGTDSDTFSFAIDLPPVIPTEQKIEFCISYHANGQVFWDNNDGQNYRIVHVQWKPD
# modifications: left off: His6, N-terminal, cleaved
# B5: PTG peptide 81-132 (peptide, UniProt Q9UQK1 81-132, looked up)
# peptide: AKKRVVFADSKGLSLTAIHVFSDLPEEPAWDLQFDLLDLNDISSALKHHEEK
# notes: also called peptide 2; source: synthetic peptide, bought: ProteoGenix SAS
# B6: PTG peptide 81-107 (peptide, UniProt Q9UQK1 81-107, looked up)
# peptide: AKKRVVFADSKGLSLTAIHVFSDLPEE
# notes: also called peptide 1; source: synthetic peptide, bought: ProteoGenix SAS
# Tests used:
# PP1 (Homo sapiens) [1] = molecular target: PP1 (Homo sapiens) (UniProt P62136); conditions: cited from earlier work
# Sequence of PP1 (Homo sapiens) (P62136 2-330): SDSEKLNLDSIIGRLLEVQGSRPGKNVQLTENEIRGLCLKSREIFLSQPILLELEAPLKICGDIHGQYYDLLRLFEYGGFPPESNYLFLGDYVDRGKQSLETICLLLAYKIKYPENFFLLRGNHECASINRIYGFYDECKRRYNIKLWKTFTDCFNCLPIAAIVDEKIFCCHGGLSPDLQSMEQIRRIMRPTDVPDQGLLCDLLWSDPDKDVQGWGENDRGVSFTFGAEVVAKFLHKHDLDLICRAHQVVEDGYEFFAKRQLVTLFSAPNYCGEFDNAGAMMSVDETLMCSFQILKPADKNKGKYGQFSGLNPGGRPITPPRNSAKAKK
# GM CBM21 = conditions: cited from earlier work
# Excerpt: The same two sugar-binding sites have been identified in the crystal structures of Rhizopus oryzae CBM21[13],[14]; site II is the primary binding site, while site I has been hypothesized to contribute to the binding of long-chain soluble polysaccharides and insoluble starch or to the relaxation and unwinding of helical amylose[15],[16].
# PP1 (Homo sapiens) [2] = molecular target: PP1 (Homo sapiens) (UniProt P62136); conditions: cited from earlier work; remark: listed apart in the source
# 6xHis-tagged PP1^7-330 = 6xHis-tagged PP1^7-330 (UniProt P62136 7-330, Mn2+ in active site (expressed and purified with MnCl2); N-terminal 6xHis tag used for capture, left out. Alpha isoform taken from the authors' PDB entries 7QFB/7QM2 and the residue numbering); assay: grating-coupled interferometry (GCI); 6xHis-tagged PP1 7-330 reversibly captured on 4PCP-NTA WAVE chip (3600 or 1600 pg/mm^2); peptides injected, 1:2 dilution series from 300 nM; 25 °C; 10 mM Hepes pH 7.2, 150 mM NaCl, 0.005% Tween 20, 0.2 mg/ml BSA; mass transport binding model; conditions: both partners purified
# Sequence of 6xHis-tagged PP1^7-330 (P62136 7-330): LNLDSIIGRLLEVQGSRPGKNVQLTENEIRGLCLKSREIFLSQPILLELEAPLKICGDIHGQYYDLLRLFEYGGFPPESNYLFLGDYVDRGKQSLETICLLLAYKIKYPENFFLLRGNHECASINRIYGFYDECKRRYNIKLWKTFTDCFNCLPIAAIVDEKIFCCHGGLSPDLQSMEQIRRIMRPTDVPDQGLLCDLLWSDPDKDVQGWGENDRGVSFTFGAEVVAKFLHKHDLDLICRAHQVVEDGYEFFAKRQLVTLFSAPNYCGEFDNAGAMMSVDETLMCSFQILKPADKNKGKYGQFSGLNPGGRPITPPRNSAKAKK
# [3] = molecular target: T1, PP1 7-330 (Serine/threonine-protein phosphatase PP1-alpha catalytic subunit, residues 7-330) (human, UniProt P62136 7-330); assay: grating-coupled interferometry (GCI); PTG 70-264 immobilised by amine coupling on a 4PCH WAVE chip at 1000 pg/mm2; PP1 7-330 injected, 1:2 dilution series from 400 nM; 10 mM Hepes pH 7.2, 150 mM NaCl, 0.005% Tween 20; 25 °C; 30 µl/min; mass transport binding model; conditions: both partners purified
# T1 construct: Serine/threonine-protein phosphatase PP1-alpha catalytic subunit, human, UniProt P62136, residues 7-330; source: E. coli BL21 (DE3) pGro7, purified (Ni-NTA, SEC)
# T1 sequence (P62136 7-330): as above
# PP1 7-330 = molecular target: T2, PP1 7-330 (Homo sapiens, UniProt P62136); assay: GCI binding of immobilized PTG constructs to PP1 as analyte; conditions: GCI titrations, compared with PTG peptides 81–107 and 81–132
# T2 construct: reversibly capturing 6xHis-tagged PP1^7-330; host or cells: E. coli BL21 (DE3) pGro7
# T2 sequence (P62136 7-330): as above
# Experimental: Grating-coupled interferometry (GCI) experiments were performed using the Creoptix WAVE system, a new generation instrument for the high-sensitivity kinetics and affinity analysis of label-free molecular interactions based on the waveguide interferometry technology. Waveguide interferometry exceeds the sensitivity levels of Surface Plasmon Resonance (SPR). […] GCI allows getting high resolution even at very low signal levels with low noise without artificial data averaging and reliable kinetics below 1 pg/mm^2. By the lower immobilization levels that are required, it avoids mass transport limitations. It covers the broadest kinetic range with the capability of analyzing of the ultra-fast transition times (i.e. 150 ms). It allows the reliable determination of off-rates of 5 s^–1 and even faster, enabling off-rate screening of weakly binding analytes. GCI can be applied to a wide range of pharmacological targets, with improved results on very low molecular weight compounds, to the dimensions of metal ions[56].
# WAVE chips are composed of four channels or cells. Borate buffer (100 mM sodium borate pH 9.0, 1 M NaCl) was used for chip conditioning. To evaluate the kinetics of the PTG interaction with β-cyclodextrin and PP1, PTG^70-264 (20 µg/ml in buffer acetate pH 5.0) was immobilized on 4PCH WAVE chips (quasiplanar polycarboxylate surface; Creoptix) by standard amine coupling according to the manufacturer’s instructions at a density of 1800 pg/mm^2 and 1000 pg/mm^2 for β-cyclodextrin and PP1^7-330, respectively (Supplementary Figs. 8, 9). Regeneration-free injections of a 1:3 dilution series from 500 µM for β-cyclodextrin in running buffer (10 mM Hepes pH 7.2, 150 mM NaCl, 0.005% Tween 20) were performed at 25 °C, using a flow rate of 100 μl/min. Similarly, regeneration-free injections of a 1:2 dilution series from 400 nM for PP1^7-330 in the same running buffer were performed at 25 °C, using a flow rate of 30 μl/min. […]
# Supplementary Figure 3: Quantitative binding kinetics by GCI. […]
# 6xHis-tagged PP1 7-330 = molecular target: T3, 6xHis-tagged PP1 7-330 (human, UniProt P62136 7-330); assay: grating-coupled interferometry (GCI); 6xHis-tagged PP1 7-330 captured on 4PCP-NTA WAVE chips (3600 pg/mm2 for PTG 81-107, 1600 pg/mm2 for PTG 81-132); peptides injected, 1:2 dilution series from 300 nM; 10 mM Hepes pH 7.2, 150 mM NaCl, 0.005% Tween 20, 0.2 mg/ml BSA; 25 °C; 100 µl/min; mass transport binding model; conditions: both partners purified
# T3 construct: Serine/threonine-protein phosphatase PP1-alpha catalytic subunit, human, UniProt P62136, residues 7-330; Captured by its His tag on 4PCP-NTA chips; a TEV site lies between tag and protein; source: E. coli BL21 (DE3) pGro7, purified (Ni-NTA, SEC); not shown: His6, N-terminal, kept
# T3 sequence (P62136 7-330): as above
molecule,measurement,setting,value
GM 64-105 (from UniProt Q00756),Kd,PP1 (Homo sapiens) [1],114 nM
OC[C@H]1O[C@@H]2O[C@H]3[C@H](O)[C@@H](O)[C@@H](O[C@H]4[C@H](O)[C@@H](O)[C@@H](O[C@H]5[C@H](O)[C@@H](O)[C@@H](O[C@H]6[C@H](O)[C@@H](O)[C@@H](O[C@H]7[C@H](O)[C@@H](O)[C@@H](O[C@H]1[C@H](O)[C@H]2O)O[C@@H]7CO)O[C@@H]6CO)O[C@@H]5CO)O[C@@H]4CO)O[C@@H]3CO [α-cyclodextrin],Kd,GM CBM21,27600 nM
GM 64-237 (from UniProt Q00756),Kd,PP1 (Homo sapiens) [2],21 nM
B1,Kd,6xHis-tagged PP1^7-330,14 nM
B2,Kd,[3],87 nM
same,koff,[3],0.0043 s⁻¹
same,kon,[3],50000 M⁻¹ s⁻¹
B3,binding to PP1 (in words),PP1 7-330,did not bind PP1 any better
B4,binding to PP1 (in words),PP1 7-330,no interaction was detected
same,binding to PP1 (in words),PP1 7-330; listed as isolated CBM21,undetectable binding
B5,Kd,6xHis-tagged PP1 7-330,7.7 nM
same,koff,6xHis-tagged PP1 7-330,0.0026 s⁻¹
same,kon,6xHis-tagged PP1 7-330,357000 M⁻¹ s⁻¹
B6,Kd,6xHis-tagged PP1 7-330,14.1 nM
same,koff,6xHis-tagged PP1 7-330,0.00295 s⁻¹
same,kon,6xHis-tagged PP1 7-330,208000 M⁻¹ s⁻¹
